Results reported in paper PMC6525185, “6mA-DNA-binding factor Jumu controls maternal-to-zygotic transition upstream of Zelda”.

T1: Jumu FKH domain (SPR) (UniProt Q7K214 391-540)
T1 sequence: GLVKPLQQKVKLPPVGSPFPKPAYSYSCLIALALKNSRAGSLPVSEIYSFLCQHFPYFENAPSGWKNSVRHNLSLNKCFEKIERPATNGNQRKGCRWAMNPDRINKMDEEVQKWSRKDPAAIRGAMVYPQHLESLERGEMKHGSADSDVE


Molecular target: T1, Jumu FKH domain (SPR)
Assay: SPR; EMSA: 20 mM HEPES pH 7.5, 50 mM KCl, 1 mM DTT (printed DDT), 1 mM EDTA, 0.01 mg/ml BSA, 2% Ficoll 400, 5 ng/µl poly(dI:dC), 25 °C, 15 nM probe; SPR: 20 mM Tris-Cl pH 8.0, 150 mM NaCl, 0.005% Tween 20, 25 °C; pull-down: 50 mM Tris-HCl pH 8, 150 mM NaCl, 1 mM DTT, 0.25% NP40
Conditions: protein: recombinant; label: 5' and 3' FAM (EMSA); biotin (SPR, pull-down)

Row | Binder | Kd [µM]
1 | 6mA-dsDNA probe (dsDNA, N6-methyladenine in place of dA, by PCR with dm6ATP (both strands; primer-derived adenines probably unmodified, primers not given)) DNA 1: GCTATTTATGCGTTCTTTTCTTCTTTCTCATTTCTATATTTATAGTGTGTGTGTGTGTGTGGGTGTGTTTGTTGTATGTGGTTAAATATGCTTCGTTTTTGTTTAATTGGTTTTTGTTTTTGTGATGATCATGGG DNA 2: CCCATGATCATCACAAAAACAAAAACCAATTAAACAAAAACGAAGCATATTTAACCACATACAACAAACACACCCACACACACACACACACTATAAATATAGAAATGAGAAAGAAGAAAAGAACGCATAAATAGC | 2.37
2 | dA-dsDNA probe (dsDNA) DNA 1: GCTATTTATGCGTTCTTTTCTTCTTTCTCATTTCTATATTTATAGTGTGTGTGTGTGTGTGGGTGTGTTTGTTGTATGTGGTTAAATATGCTTCGTTTTTGTTTAATTGGTTTTTGTTTTTGTGATGATCATGGG DNA 2: CCCATGATCATCACAAAAACAAAAACCAATTAAACAAAAACGAAGCATATTTAACCACATACAACAAACACACCCACACACACACACACACTATAAATATAGAAATGAGAAAGAAGAAAAGAACGCATAAATAGC | 42.1
